# Reference: the supplement of paper PMC7125110
# ± gives the standard error. Variants at the floor of the assay were thinned out.
# B1: glmS ribozyme (parent)
# chain: AUAAAAGCGCCAGAACUACAGAAAUGUAGUUGACGAGGAGGAGGUUUAUCGAAUUUUCGGCGGAUGCCUCCAAA
# Variants of: B1
# Assay: self-cleavage kobs at 2500 uM GlcN6P; higher = faster cleavage; RNA array
# Conditions: with glucosamine-6-phosphate
# Outline: (§1)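 kobs was derived by fitting per-tile medians to one- or two-exponential decays after normalising signals to baseline and to non-cleaving reference variants. Those signals came from barcoded ribozyme variants transcribed in situ by E. coli RNA polymerase on sequenced MiSeq chips, followed through a hybridised Cy3 probe at 37 °C and imaged over ~14 h. Glucosamine-6-phosphate (40 μM to 10 mM) in HEPES/KCl/Mg(OAc)2 buffer was flowed in. Weighted Michaelis–Menten fits across concentrations then gave kcat and KM.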
row,Variant,self-cleavage kobs at 2500 uM GlcN6P [s⁻¹]
1,AUAAAAGCGCCAGAACUACAGAAAUGUAGUUGACGAGGAGGAGGUUUGGCGUGUUUUCGGCGGAUGCCUCCAAA,< 1e-05
2,AUAAAAGCGCUAGAACUACAGAAAUGUAAUUGACGAGGAGGAGGUUUAGCGAAUUUUCGGCAGAUGGCUCCAAA,< 1e-05
3,AUAAAAGCGCUAGAACUACAGAAAUGUACUUGACGAGGAGGAGUUUUAUCGAAUUUUCGGCGUACGUCUCUAAA,< 1e-05
4,AUAAAAGCGCCAGAACUACAGAAAUGUAGUCGACGAUGAGGAGGUUUAUCGAAUUUUCGGCGGAAGCCUCCAAA,< 1e-05
5,AUAAAAGCGACAGAACUACAGAAAUGUAGUUGACGAGGAGGAGGUUUAUCGAACUUUCGGCGGAUGCCUCCAAA,< 1e-05
6,AUAAAAGCGCCAGUACUACAGAAAUGUAGUUGACGAGGAGGAGGUUUAUAGAAUUUUCGGCGGAUGCCUCAAAA,4.46e-05 ± 2.1e-05
7,AUAAAAGCGCCAGAAUUACAGAAAUGUAGGUAACGAGGAGGAGGUUUAUCGAAUUUUCGGCGGAUGCUUCCAAA,7.75e-05 ± 3.2e-05
8,AUAAAAGCGCCAGAUCUACAGAAAUGUAGUUGACGAGGAGGAGGUUUAUCGAAUUCGCGGCGAAUGCCUGCAAA,0.000104 ± 4.9e-05
9,AUAAAAGCGCCAGAGCUACAGAAAUGUAGUUGACAAGGAGGAGGUCUAUCGACUUUUCGGCGGAUGCCUCCAAA,< 1e-05
10,AUAAAAGCGCCAGAACUACAGAAAUGUAGUUGACGAGGAGGAGGUUUAUUGAAUUUUAGGCGGAUGCCUGCAAA,7.55e-05 ± 2.9e-05
11,AUAAAAGCGCCAGAACUACAGAAAUGUAGUUGACGAGGAUGAGGUUGAUCGAACUUUCGGCGGAUGCCUCCAAA,0.00079 ± 0.00014
12,AUAAAAGCGCCAGAACUACAGAAAUGUAGUCAACGAGCAGGAAGUUUAUCGAAUUUUCGGCGGAUGCCUCCAAA,< 1e-05
13,AUAAAAGCGCCAGAACUACAGAAAUGUAGUUGACGAGGAGGAGGUUUAUCGAAUUCUCGGCGGUCGCCUCCAAA,< 1e-05
14,AUAAAAGCGCCAGAACUACAGAAAUGUAGUUGACGAGGAGGAGGUUUAUCGUAUUUUCGGCGGAUGACUCUAAA,7.56e-05 ± 3.1e-05
15,AUAAAAGCGCCAGAACUACAGAAAUGUAGAAGACGAGGAAGAGGUUUAUCGAAUUUGCGGCGGAUGCCUCCAAA,< 1e-05
16,AUAAAAGCGCCAGAACUACAGAAAUGUAGUUGACGAGGAGGAGGUUUUUCGAAUUAUCGGCGGAUGCCUCCAAA,9.99e-05 ± 3.4e-05
17,AUAAAAGCGCCAGAACUACAGAAAUGUAGUUGACGAGGAGGAUAUUUAUUGAAUUUUCGGGGGAUGCCUCCAAA,< 1e-05

row,Variant,self-cleavage kobs at 2500 uM GlcN6P [s⁻¹]
1,AUAAAAGCGCCAGAACUACAGAAAUGUAGUUGACGCGGAGGAGGUUGAUCGGAUUUUCGCCGGAUGCCUCCAAA,< 1e-05
2,AUAAAAGCGCCAGAGCUACAGAAAUGUAGUUGGCGAGGAGGAGGUUUCUCGAAUUUUCGGAGGAUGCCUCCAAA,< 1e-05
3,AUAAAAGCGCCAGAACUACAGAAAUGUAGAUGACGAGGAAGAGGUUUAUCGAAUUUUCGGCGGAUGCCUCAAAA,0.00142 ± 0.0005
4,AUAAAAGCGCCAGAACUACAGAAAUGUAGUUGACGAGUAGGAGGGUUAUCAAAUUUUCGGCGGAUGUCUCCAAA,< 1e-05
5,AUAAAAGCGCCACAACUACAGAAAUGUAGUUGACCAGGAGGAGUUUUAUCGAAUUAUCGGUGGAUGCCUCCAAA,< 1e-05
6,AUAAAAGCGCCAGAACUACAGAAAUGUAGUUGACGAGAAGGAGGUUUAUCGAAUUUUCGGCAUAUGCCUCCAAA,< 1e-05
7,AUAAAAGCGCCAGAACUACAGAAAUGUAGUUGACGAGGAGGAGGUUGUUCGAAUUGUCGGCGGAUGCAUCCAAA,0.000324 ± 0.00012
8,AUAAAAGCGCCAGAACUACAGAAAUGUACUUGACGAGGAGGGGGUUUAUCGAAUUUUCGGCGGAUGGCUCCAAA,0.000111 ± 5.1e-05
9,AUAAAAGCGCGAGAACUACAGAAAUGUAGUUGACGAAGAGGAGGUUUAUCGAAUUUUCGUCGCAUGCCCUCAAA,< 1e-05
10,AUAAAAGGGCCAGAACUACAGAAAUGUAGUUGACAAGGAGGAGGUUUAUCGAAUUUUCGGCGGACGCCUCCAAA,< 1e-05
11,AUAAAAGCGGCAGAAGUACAGAAAUGUAGUUCACGAGGAGGUGGUUUAUCGAAUUUUCGUCGGAUGCCUCCAAA,< 1e-05
12,AUAAAACCGCCAGAACUACAGAAAUGUAUUUGACUAGGAGGAGGUUUAUCGAAUUUUCGGCGGAUGCCUCCAAA,< 1e-05
13,AUAAAAGCGCCAGAACUACAGAAAUGUAGUUGACGAGGAGGAGGAUUAUCGAAUCUCCGGCGGAUGCCUCCAAA,8.32e-05 ± 1.8e-05
14,AUAAAAGGGUCAGAACUACAGAAAUGUAGUUGACGAUGAGGCGGUUUAUCGAAGUUUCGGCGGGUGCCUGCAAA,< 1e-05
15,AUAAAAGCGCCAGAACUACAGAAAUGUAGUUGACGAGGAGGAGGUUUAUCGAUCAUUCGGCGGGUGCCUCCAAA,0.00369 ± 0.00074
16,AUAAAAGCGCCAGAACUACAGAAAUGUAGUUGACGAGGAGGAAGUUUAUCGAAUCUUCUGCGGAUGGCUCCAAA,< 1e-05
17,AUAAAAGCGCCAGAAGUACAGAAAUGUAGUUGACGAGGAGGAGGUUUAUCGAAUUUUCUCCGGAUGCGUCCAAA,< 1e-05

# Variants of: B1
# Assay: self-cleavage kobs at 10000 uM GlcN6P; higher = faster cleavage; RNA array
# Conditions: with glucosamine-6-phosphate
# Outline: as §1
row,Variant,self-cleavage kobs at 10000 uM GlcN6P [s⁻¹]
1,AUAAAAGCGCCAGAAUUACAGAAAUGUAGGUAACGAGGAGGAGGUUUAUCGAAUUUUCGGCGGAUGCUUCCAAA,0.000157 ± 5.1e-05
2,AUAAAAGCGCCAGAACUACAGAAAUGUAGUUGACGAGGAGGAGGUUGUUCGAAUUGUCGGCGGAUGCAUCCAAA,4.62e-05 ± 1.6e-05
3,AUAAAAGCGCCAGAACUACAGAAAUGUAGUUGACGAGGAGGAGGAUUAUCGAAUCUCCGGCGGAUGCCUCCAAA,0.00033 ± 7.3e-05
